Literature values as cited in publication PMC5806463.
pKd: −log10 of the molar value.

Target: IL-18BP (Homo sapiens) (UniProt O95998)
Sequence (O95998 31-194): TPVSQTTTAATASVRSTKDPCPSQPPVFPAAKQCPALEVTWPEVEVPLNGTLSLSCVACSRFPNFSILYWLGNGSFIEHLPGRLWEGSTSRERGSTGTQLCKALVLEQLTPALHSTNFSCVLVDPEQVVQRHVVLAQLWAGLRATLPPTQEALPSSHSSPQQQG

Sequence of IL-18 (Q14116 37-193): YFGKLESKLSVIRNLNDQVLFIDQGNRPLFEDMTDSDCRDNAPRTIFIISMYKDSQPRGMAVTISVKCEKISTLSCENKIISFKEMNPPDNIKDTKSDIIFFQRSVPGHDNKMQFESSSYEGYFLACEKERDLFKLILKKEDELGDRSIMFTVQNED

Q: With IL-18 (from UniProt Q14116) as the substance, how does the pKd read?
A: Its pKd is 9.40.
